From the supplement of paper PMC12042874
± gives the uncertainty stated by the source.

Experiment: amyloid nucleation score (Sup35N fusion, yeast selection) (log enrichment); library NNK3; higher = more nucleation; inactive = no reads after selection
Procedure, shortened: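 For the nucleation score, DiMSum gave the log enrichment of output over input reads, centred on the mode score of non-aggregating sequences. Psi-negative yeast expressing Sup35N fused to peptides of 20 random codons were induced with 100 μM copper sulfate for 24 hours and grown 7 days at 30°C on medium lacking adenine and uracil. Input and output plasmid inserts were Illumina-sequenced, and sequences with under 100 input reads were excluded.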

| Substance | amyloid nucleation score |
| --- | --- |
| QDTLVPYMFKQITVYVYGLA | inactive |
| QDVAFAAEYELTKCSVLFSN | inactive |
| QDYGYFNTYQFVRKWSSISL | inactive |
| QEAGFMYGCYFVILQNHAGF | 1.3 ± 0.092 |
| QELLPIRYLVE | inactive |
| QFIEMSSQYFSMRYVDRVAD | inactive |
| QFNMKVFMHDWWRLLLPKSK | inactive |
| QGSRLNGIKSPLCIGLKCSR | inactive |
| QGWPRKITVILFWILQSGSR | inactive |
| QHMSRYYVFLLNCIQCIMNG | 1.58 ± 0.12 |
| QHNLRDGMFLNGTYRNDAVR | inactive |
| QHTAFLRKVSPSLRG | inactive |
| QIHNRTMPCWRSKATVLGKT | inactive |
| QIKKAINHHKYFW | inactive |
| QILYFVDTEVSYMEASWRDS | inactive |
| QKHISY | inactive |
| QKIIVSR | inactive |
| QLCPHYFCKNKNATYGLTSR | inactive |
| QLFTVTLQLTLLSKIDTANL | 1.03 ± 0.13 |
| QLHVMNVYFFWKDSSALMRA | inactive |
| QLMDLTGFRRSSVYVLVCDF | inactive |
| QLSSYFRGLLFQCHSPQHGY | inactive |
| QLTLACSRLQAGLSSQRHLS | inactive |

| Substance | amyloid nucleation score |
| --- | --- |
| QLVLPSFMVTLSCG | inactive |
| QMQTATRHFNLG | inactive |
| QNMFSSANRLMSTC | inactive |
| QNRLQTSFMVGQRGNTLVTN | inactive |
| QNSGFWIRMH | -1.38 ± 2.4 |
| QNVKIRRGICEEFYRRVQLD | inactive |
| QPCDHWHEDLNVCVVVIYAG | inactive |
| QPCPYKLCQFFRKDA | inactive |
| QPMKLRT | inactive |
| QQEKLCLKHTSQVDI | inactive |
| QQEMCTLFFRN | inactive |
| QQSTIIFFVWAWMELNPTWK | inactive |
| QQYYVAWFCDYDLFNCMNLM | 1.99 ± 0.095 |
| QRIHGLF | inactive |
| QRNSCLDFMK | inactive |
| QRYSLHDINEDYRYDWVNGL | inactive |
| QSDRVPRILLGKRFKSPLSF | inactive |
| QSLSVEH | inactive |
| QSNCCWVV | inactive |
| QSRSRSNARARWVVSKLSCS | 0.21 ± 0.53 |
| QSWLMPFCLVSSTWKV | inactive |
| QTDMWIDTWKVQPVWIEDEG | inactive |
| QTMDTYLWLAR | -0.083 ± 1.1 |

| Substance | amyloid nucleation score |
| --- | --- |
| QTMLIM | inactive |
| QVFHFGCSEDARCVCRVHM | inactive |
| QVFLRMKRRICVPLFYLACN | 0.422 ± 0.21 |
| QVGSLFWLRY | inactive |
| QVSLSRRISFYGHLNSDNES | inactive |
| QWFVRNFLFNPNALRYFRSS | inactive |
| QYICTLTCSYFLGSMTIEHK | -0.022 ± 0.66 |
| QYRDSYANSSQNPFHCFFNL | inactive |
| QYSHPQRIIFSF | -0.249 ± 0.43 |
| RAALLGVSADFTKHTTRVWE | inactive |
| RAGATTFGVMVYKYDKFRQD | inactive |
| RARLMITYYLTDQASDNRYV | 0.799 ± 0.28 |
| RCFYKRYNYLS | inactive |
| RCIMRYCAKALCKVICSQWL | inactive |
| RCIVSRLTWGTILISFLQNR | inactive |
| RCIYTMVWVTNVNMVRRTGA | 1.69 ± 0.084 |
| RCQATWWNIIFFAIGDCDLL | inactive |
| RCRDGTILALC | inactive |
| RCREFERKLALSLQSVGS | inactive |
| RCSDYHMR | inactive |
| RCWILISANHQKDFVSHIFY | 0.627 ± 0.36 |
| RCYCCPRTDSLGMG | inactive |
| RDCTMYNTYFIWNIYPG | 3.42 ± 0.07 |

| Substance | amyloid nucleation score |
| --- | --- |
| RDFNMDTVRAVWISQILNSI | inactive |
| RDGTYRWSDLKTICLIRVSW | inactive |
| RDRCISFEYAVQTCHYECRP | -0.294 ± 0.74 |
| RDRSVKRVVHSGFRFSIGEA | inactive |
| RDSVNFTSNCCSVGFNTFNS | 2.67 ± 0.053 |
| RDTYQSSCDWQW | 0.077 ± 0.87 |
| RDYAFNPMFCCATNAKFMKG | 1.96 ± 0.06 |
| REAASQIHSEDKMGGWYHRL | inactive |
| REAYDLFSCIDYVLNFMFNY | inactive |
| RECWMKPNLNSNTYSEMICE | 0.011 ± 0.81 |
| REDWRLFNCTTFSAPSSC | -0.217 ± 0.66 |
| REKDSAAHVVE | inactive |
| RELTRRTYAVANYRLSMSRL | inactive |
| RELYFSYDSLDYLGMRVWML | inactive |
| RERIFRICVFRMTSDKMTAT | inactive |
| RERPRD | inactive |
| RFCAFERG | inactive |
| RFHVLINCFSAAGRGNPGSR | 1.69 ± 0.068 |
| RFLLLRSCMSIDWRVGLEIF | inactive |
| RFLYRYG | inactive |
| RFMFSLFMNEGNMLHMLRRV | inactive |
| RFMQWGIFS | inactive |
| RFNAFSPSPRWPRHFKTMYY | inactive |

| Substance | amyloid nucleation score |
| --- | --- |
| RFQYLNYCMFMVRCGHYDTS | inactive |
| RFRMHIIYKRKGIACVRSTS | inactive |
| RFRSRS | -0.02 ± 1.1 |
| RFSIPMLQRCLWLTGPVCPI | inactive |
| RFSWWRW | 1.24 ± 0.14 |
| RFVGSGCSGWCSRARDLWWL | inactive |
| RFVTRCREDSVTLKHG | inactive |
| RFWCLVVCTRLVHMENGRCS | inactive |
| RFYGYTLY | inactive |
| RGCTGIKPLPTSWACAFSTS | inactive |
| RGDMMGLSTENTLLLYDVGR | inactive |
| RGDVWLELKGLFAIFCYSEL | 2.96 ± 0.062 |
| RGICGNQLCRVMPLLNPHGC | inactive |
| RGIWGLSLYGVISNVSGLSK | -0.103 ± 0.43 |
| RGMKDCCTRWALRYWDVSVL | inactive |
| RGNKTI | inactive |
| RGRIVLNQRLNCDDEDGISE | inactive |
| RGSKQLDWHSYYNRVLDIGR | -0.296 ± 0.88 |
| RGSPFSWVGPSDRSWSPKFP | inactive |
| RGTRTGPRDRTLFMSKAVRS | 0.364 ± 0.39 |
| RGWYINTVGYRTRAGHNLCG | inactive |
| RGYSFCRPSHWWKARCVEGE | inactive |
| RHAYQRWLIFC | inactive |

| Substance | amyloid nucleation score |
| --- | --- |
| RHCWVPGCDRQCKWYFEGTS | inactive |
| RHEHREGNGDVPLNV | inactive |
| RHLMYPNRNMMVWSSFSDLG | inactive |
| RHLPQESKRSSVAAISLM | inactive |
| RHSQFTVVFCNRGRCAGLAA | inactive |
| RHVNEGLVRGFNPSRTLKGK | inactive |
| RIDRSYACALSWHVLYVNR | 0.436 ± 0.23 |
| RIGQMFLILVFKGLL | inactive |
| RIIAGWTYRSSQIWYFRDPH | inactive |
| RIKAYVGLFTVSWGSWGRRR | 1.44 ± 0.14 |
| RIKLRLFTTHEYCSRDRCSD | inactive |
| RIKSSTYSMSLVGAQ | inactive |
| RILCRVRYM | inactive |
| RINSVQGDGVLNLCPRLRVP | inactive |
| RIPKTKRYHPCYVRLRRSVY | inactive |
| RIRVSNVCSHQFWLIYGNDT | 2.15 ± 0.057 |
| RISAFWLYTACQFGSDLDTC | inactive |
| RITGALRAFGSRTFCASCVC | inactive |
| RITIMFGSLINDLHFCNA | 2.87 ± 0.052 |
| RIWRPLTFMSLDLMIMWCRH | inactive |
| RIYKNRSSSGILLNERFPGL | -0.46 ± 1.3 |
| RIYTYKRIYRIKVLITWNRL | inactive |
| RKDLCDFSYLHGDPGAKPEL | inactive |

| Substance | amyloid nucleation score |
| --- | --- |
| RKEVEGGVPALYDDMRIFES | inactive |
| RKGLL | inactive |
| RKGTWPHLGTVNRRVQRWVY | inactive |
| RKHAGLYLQYE | inactive |
| RKHLDLT | inactive |
| RKLFFEFFFCDSVH | inactive |
| RKTSV | -0.071 ± 0.28 |
| RLAGCYYIP | inactive |
| RLASGLNPFYVRG | inactive |
| RLDGSMSGCFSTFWNWNIVR | inactive |
| RLFMGRS | inactive |
| RLHRLKDFTRNGCEYSSHLS | inactive |
| RLHTMWTYP | inactive |
| RLLLSGSSVAICCGQLGLGF | 2.11 ± 0.097 |
| RLLMKV | inactive |
| RLLSAV | inactive |
| RLNGRDHL | inactive |
| RLQMGVLDLFYFD | inactive |
| RLRGVGIIVGGASQSSSQLR | inactive |
| RLRLYFRLTKNFHSMNHW | inactive |
| RLSGNADYNNWTF | 0.436 ± 0.67 |
